Results published in patent US20140162947A1.
One block for each substance: values may come before it.

What was measured:
Test in all cases: cell-based or functional assay
[1] = molecular target: CCR7 (mouse) (UniProt P47774)
[2] = molecular target: CXCR3 (mouse) (UniProt O88410)
[3] = molecular target: CXCR4 (mouse) (UniProt P70658)
Sequence of UniProt P70658 (P70658 whole entry): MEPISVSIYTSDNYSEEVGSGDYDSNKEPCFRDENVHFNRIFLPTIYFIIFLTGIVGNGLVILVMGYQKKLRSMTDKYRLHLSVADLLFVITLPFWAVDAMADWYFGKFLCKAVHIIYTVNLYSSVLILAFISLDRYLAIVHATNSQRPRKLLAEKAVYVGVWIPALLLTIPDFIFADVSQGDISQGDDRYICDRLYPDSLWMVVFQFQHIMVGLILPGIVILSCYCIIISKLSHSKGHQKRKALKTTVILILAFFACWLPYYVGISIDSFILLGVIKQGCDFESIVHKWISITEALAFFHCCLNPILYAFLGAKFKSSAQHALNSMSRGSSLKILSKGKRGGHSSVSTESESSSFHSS

Sequence of UniProt P47774 (P47774 25-378): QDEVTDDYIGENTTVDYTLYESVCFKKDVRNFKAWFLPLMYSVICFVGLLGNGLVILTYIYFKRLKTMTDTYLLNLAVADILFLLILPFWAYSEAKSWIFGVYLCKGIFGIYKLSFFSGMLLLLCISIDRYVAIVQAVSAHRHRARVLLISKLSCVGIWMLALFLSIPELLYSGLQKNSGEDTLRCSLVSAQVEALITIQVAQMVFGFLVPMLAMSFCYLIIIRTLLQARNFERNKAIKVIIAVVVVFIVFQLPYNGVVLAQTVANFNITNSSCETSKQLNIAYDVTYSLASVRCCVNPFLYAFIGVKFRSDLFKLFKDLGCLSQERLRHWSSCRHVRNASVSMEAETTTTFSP
Sequence of UniProt O88410 (O88410 whole entry): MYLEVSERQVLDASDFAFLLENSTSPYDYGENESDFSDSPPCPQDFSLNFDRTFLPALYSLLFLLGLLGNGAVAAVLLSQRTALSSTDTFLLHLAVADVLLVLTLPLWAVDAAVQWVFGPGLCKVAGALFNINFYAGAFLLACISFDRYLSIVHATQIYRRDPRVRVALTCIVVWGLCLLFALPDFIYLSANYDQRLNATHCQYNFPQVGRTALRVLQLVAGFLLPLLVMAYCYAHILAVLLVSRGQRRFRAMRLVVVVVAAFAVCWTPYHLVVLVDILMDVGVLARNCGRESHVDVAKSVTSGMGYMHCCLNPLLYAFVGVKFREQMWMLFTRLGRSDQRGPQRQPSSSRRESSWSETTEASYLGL

migration of WT GMP- and CMP-derived PACs in a transwell Boyden chamber, fold over BSA control [1]: 4 fold
Substance: CCL21 (ligand)

migration of WT GMP- and CMP-derived PACs in a transwell Boyden chamber, fold over BSA control [2]: 4 fold
Substance: CXCL10 (ligand)

migration of WT CMP-derived PACs in a transwell Boyden chamber, fold over BSA control [3]: 23 fold | migration of WT GMP-derived PACs in a transwell Boyden chamber, fold over BSA control [3]: 19 fold
Substance: SDF-1α (ligand)
